# From patent JP2012100585A (dated 2012)
# What was measured:
# BSA [1] = biological target: T1, BSA (UniProt P02769 25-607); test: ELISA, BSA on the plate, anti-V5 detection
# T1 construct: Negative control antigen; also called BSA(陰性対照、シグマ社)
# [2] = biological target: T2, 組換えヒトLOX−1タンパク質(61−273aa) (human, UniProt P78380 61-273); test: ELISA, LOX-1 (61-273) on the plate, HRP anti-mouse IgG detection
# BSA [3] = biological target: T1, BSA; test: ELISA, BSA on the plate
# [4] = biological target: T2, 組換えヒトLOX−1タンパク質(61−273aa); test: ELISA on LOX-1 (61-273), anti-V5 detection; 4-parameter logistic fit
# T1 sequence (P02769 25-607 limits assumed): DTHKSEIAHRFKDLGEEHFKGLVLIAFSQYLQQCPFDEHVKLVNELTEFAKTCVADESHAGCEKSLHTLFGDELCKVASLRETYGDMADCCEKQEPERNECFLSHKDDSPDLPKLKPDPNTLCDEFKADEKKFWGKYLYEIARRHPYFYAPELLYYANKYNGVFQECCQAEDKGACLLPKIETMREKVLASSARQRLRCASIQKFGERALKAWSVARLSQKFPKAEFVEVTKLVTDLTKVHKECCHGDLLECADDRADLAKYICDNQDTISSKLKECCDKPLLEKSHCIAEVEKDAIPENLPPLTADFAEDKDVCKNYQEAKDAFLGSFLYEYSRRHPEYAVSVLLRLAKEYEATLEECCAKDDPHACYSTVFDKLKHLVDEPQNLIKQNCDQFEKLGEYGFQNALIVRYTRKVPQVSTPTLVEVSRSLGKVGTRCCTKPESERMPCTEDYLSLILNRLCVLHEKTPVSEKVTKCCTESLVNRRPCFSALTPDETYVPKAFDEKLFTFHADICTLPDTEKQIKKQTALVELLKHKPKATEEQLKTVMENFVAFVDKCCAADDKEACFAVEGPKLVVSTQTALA
Binder,binding result (BSA [1]),binding result [2],binding result (BSA [3]),fold higher inflection-point concentration against Fv型抗体 [4]
"Fv型抗LOX−1抗体−ApoB断片融合タンパク質 Fv−B1 (other, Fusion of scFv (C-terminus) to ApoB fragment (N-terminus) through a linker; FreeStyle 293, His-tag purified; not shown: C-terminal V5 and 6xHis tag from the pEF6/V5/His vector) EVKLLESGGGLVQPGGSLKLSCAVSGFDFSRYWMSWVRQAPGKGLEWIGEINPDSSTINFTPSLKDKFIVSRDNAKNTLYLQMSKVRSEDTALYYCARNDVLLGAMDYWGQGTSVTVSSGGGGSGGGGSGGGGSDVLMTQTPLSLPVSLGDQASISCRSSQTIVHSNGKTYLEWYLQKPGQSPKLLIYKVSNRFSGVPDRFSGSGSGTDFTLKISRVEAEDLGVYYCFQGSHVPLTFGAGTKLELKEEEMLENVSLVCPKDATRFKHLRKYTYNYEAESSSGVPGTADSRSATRINCKVELEVPQLCSFILKTSQCTLKEVYGFNPEGKALLKKTKNSEEFAAAMSRYELKLAIPEGKQVFLYPEKDEPTYILNIKRGIISALLVPPETEEAKQVLFLDTVYGNCSTHFTVKTRKGNVATEISTERDLGQCDRFKP",no binding (tested: 1.6ng/mL〜100μg/mL),–,–,–
"マウス抗LOX−1モノクローナル抗体#10−1 (antibody, V domains shown, also called 抗LOX−1抗体#10−1; マウス抗LOX−1抗体#10−1のIgG型) VH: EVKLLESGGGLVQPGGSLKLSCAVSGFDFSRYWMSWVRQAPGKGLEWIGEINPDSSTINFTPSLKDKFIVSRDNAKNTLYLQMSKVRSEDTALYYCARNDVLLGAMDYWGQGTSVTVSS VL: DVLMTQTPLSLPVSLGDQASISCRSSQTIVHSNGKTYLEWYLQKPGQSPKLLIYKVSNRFSGVPDRFSGSGSGTDFTLKISRVEAEDLGVYYCFQGSHVPLTFGAGTKLELK",–,binds,no binding (tested: 抗体濃度2ng/mL〜100μg/mL),–
"Fv型抗LOX−1抗体 (scFv, VH gene was amplified with the #10-1 heavy chain secretion signal; Expressed in FreeStyle 293, purified by His tag; also called Fv型抗体; Fv; not shown: C-terminal V5 and 6xHis tag from the pEF6/V5/His vector) scFv: EVKLLESGGGLVQPGGSLKLSCAVSGFDFSRYWMSWVRQAPGKGLEWIGEINPDSSTINFTPSLKDKFIVSRDNAKNTLYLQMSKVRSEDTALYYCARNDVLLGAMDYWGQGTSVTVSSGGGGSGGGGSGGGGSDVLMTQTPLSLPVSLGDQASISCRSSQTIVHSNGKTYLEWYLQKPGQSPKLLIYKVSNRFSGVPDRFSGSGSGTDFTLKISRVEAEDLGVYYCFQGSHVPLTFGAGTKLELK",no binding (tested: 抗体濃度2ng/mL〜100μg/mL),–,–,–

# Other lines, results leading:
binding result (BSA [1]),binding result [2],binding result (BSA [3]),fold higher inflection-point concentration against Fv型抗体 [4],Binder
no binding (tested: 1.6ng/mL〜100μg/mL),–,–,~27 倍,"Fv型抗LOX−1抗体−ApoB断片融合タンパク質 Fv−B2 (other, Fusion of scFv (C-terminus) to ApoB fragment (N-terminus) through a linker; FreeStyle 293, His-tag purified; not shown: C-terminal V5 and 6xHis tag from the pEF6/V5/His vector) EVKLLESGGGLVQPGGSLKLSCAVSGFDFSRYWMSWVRQAPGKGLEWIGEINPDSSTINFTPSLKDKFIVSRDNAKNTLYLQMSKVRSEDTALYYCARNDVLLGAMDYWGQGTSVTVSSGGGGSGGGGSGGGGSDVLMTQTPLSLPVSLGDQASISCRSSQTIVHSNGKTYLEWYLQKPGQSPKLLIYKVSNRFSGVPDRFSGSGSGTDFTLKISRVEAEDLGVYYCFQGSHVPLTFGAGTKLELKREIFNMARDQRSRATLYALSHAVNNYHKTNPTGTQELLDIANYLMEQIQDDCTGDEDYTYLILRVIGNMGQTMEQLTPELKSSILKCVQSTKPSLMIQKAAIQALRKMEPKDKDQEVLLQTFLDDASPGDKRLAAYLMLMRSPSQADINKIVQILPWEQNEQVKNFVASH"
no binding (tested: 1.6ng/mL〜100μg/mL),–,–,~7 倍,"Fv型抗LOX−1抗体−ApoB断片融合タンパク質 Fv−B4 (other, Fusion of scFv (C-terminus) to ApoB fragment (N-terminus) through a linker; FreeStyle 293, His-tag purified; not shown: C-terminal V5 and 6xHis tag from the pEF6/V5/His vector) EVKLLESGGGLVQPGGSLKLSCAVSGFDFSRYWMSWVRQAPGKGLEWIGEINPDSSTINFTPSLKDKFIVSRDNAKNTLYLQMSKVRSEDTALYYCARNDVLLGAMDYWGQGTSVTVSSGGGGSGGGGSGGGGSDVLMTQTPLSLPVSLGDQASISCRSSQTIVHSNGKTYLEWYLQKPGQSPKLLIYKVSNRFSGVPDRFSGSGSGTDFTLKISRVEAEDLGVYYCFQGSHVPLTFGAGTKLELKGPQMSASVHLDSKKKQHLFVKEVKIDGQFRVSSFYAKGTYGLSCQRDPNTGRLNGESNLRFNSSYLQGTNQITGRYEDGTLSLTSTSDLQS"
no binding (tested: 1.6ng/mL〜100μg/mL),–,–,–,"Fv型抗LOX−1抗体−ApoB断片融合タンパク質 Fv−B3 (other, Fusion of scFv (C-terminus) to ApoB fragment (N-terminus) through a linker; FreeStyle 293, His-tag purified; not shown: C-terminal V5 and 6xHis tag from the pEF6/V5/His vector) EVKLLESGGGLVQPGGSLKLSCAVSGFDFSRYWMSWVRQAPGKGLEWIGEINPDSSTINFTPSLKDKFIVSRDNAKNTLYLQMSKVRSEDTALYYCARNDVLLGAMDYWGQGTSVTVSSGGGGSGGGGSGGGGSDVLMTQTPLSLPVSLGDQASISCRSSQTIVHSNGKTYLEWYLQKPGQSPKLLIYKVSNRFSGVPDRFSGSGSGTDFTLKISRVEAEDLGVYYCFQGSHVPLTFGAGTKLELKTSGAYSNASSTDSASYYPLTGDTRLELELRPTGEIEQYSVSATYELQREDRALVDTLKFVTQAEGAKQTEATMTFKYNRQSMTLSSE"
